Assay results as given in paper PMC3998870 (Nature, 2014).

T1: VirB4/TrwK with a C-terminal StrepII tag (Escherichia coli plasmid R388, UniProt O50330 1-823)
T1 sequence (looked up): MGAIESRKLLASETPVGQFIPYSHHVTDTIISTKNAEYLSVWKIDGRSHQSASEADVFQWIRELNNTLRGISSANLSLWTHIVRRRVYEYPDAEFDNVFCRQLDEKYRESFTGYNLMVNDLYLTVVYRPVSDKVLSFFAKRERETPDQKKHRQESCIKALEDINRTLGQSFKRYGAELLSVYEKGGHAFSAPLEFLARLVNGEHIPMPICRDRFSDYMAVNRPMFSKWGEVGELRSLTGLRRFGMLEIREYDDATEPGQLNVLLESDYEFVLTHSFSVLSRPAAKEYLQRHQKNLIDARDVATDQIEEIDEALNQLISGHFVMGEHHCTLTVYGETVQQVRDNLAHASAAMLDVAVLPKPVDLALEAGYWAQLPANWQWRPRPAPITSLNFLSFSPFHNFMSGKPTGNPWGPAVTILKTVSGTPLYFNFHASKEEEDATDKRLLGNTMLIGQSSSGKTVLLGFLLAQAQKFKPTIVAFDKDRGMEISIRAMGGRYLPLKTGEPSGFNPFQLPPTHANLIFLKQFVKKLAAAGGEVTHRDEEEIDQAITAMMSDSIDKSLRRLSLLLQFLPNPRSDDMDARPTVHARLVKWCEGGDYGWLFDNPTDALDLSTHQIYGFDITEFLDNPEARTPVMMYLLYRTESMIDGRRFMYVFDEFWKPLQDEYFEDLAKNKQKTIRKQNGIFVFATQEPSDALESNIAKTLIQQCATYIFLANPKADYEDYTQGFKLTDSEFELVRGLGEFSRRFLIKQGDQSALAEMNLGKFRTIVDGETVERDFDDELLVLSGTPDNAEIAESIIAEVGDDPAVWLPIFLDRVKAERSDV

B1: VirB10/TrwE with a C-terminal StrepII tag (natural protein, Escherichia coli plasmid R388, UniProt O50337 1-395, looked up)
chain: MFGRKKGDVIDAGAELERAEQERIEGEYGASELASERRPHTPGARTLLMVLLCVIAVVLVTLSYKAYKVRGVVEDDDAQPQQVVRQVIPGYTPRPIRPEPENVPEPPQPTTSVPAIQPAPVTQPVRPQPTGPREKTPYELARERMLRSGLTAGSGGGEDLPRPQGGDVPAGGLMGGGGGGGELAEKLQPMRLSGSSAGRLGNRDMLITQGTQLDCVLETRLVTTQPGMTTCHLTRDVYSTSGRVVLLDRGSKVVGFYQGGLRQGQARIFVQWSRIETPSGVVINLDSPGTGPLGEAGLGGWIDRHFWERFGGAIMISLIGDLGDWASRQGSRQGNNSIQFSNTANGVESAAAEALRNSINIPPTLYKNQGERVNILVARDLDFSDVYSLESIPTK
B2: VirB4/TrwK (untagged, in the T4SS3-10 complex) (enzyme, Escherichia coli plasmid R388, UniProt O50330 1-823, looked up)
chain: T1 sequence (looked up)
B3: VirB5/TrwJ (natural protein, Escherichia coli plasmid R388, UniProt O50331 23-226, looked up)
chain: QGIPVFDGTRALDFVQQFARMKEQLDTAKDQLAEAQRMYEAVTGGRGLGDLMRNAQLREYLPDDLRTVYDSANGGGYSGISGSINDILRDERLNGSVADMRRSIEERSRTARTTDKAVGCGPTKGHSNASRRLKDEISRTQDQKAIEELQARIAGEQAAIQNETTKLQMIAQLRQAEQALISEQRRERNMPILSSGNQGMPTIQ
B4: VirB8/TrwG (natural protein, Escherichia coli plasmid R388, UniProt O50335 1-231, looked up)
chain: MSKKQPKPVKAEQLKSYYEESRGLERDLIGEFVKSRKTAWRVATASGLFGLLGMVCGIVGFSQPAPAPLVLRVDNATGAVDVVTTLREHESSYGEVVDTYWLNQYVLNREAYDYNTIQMNYDTTALLSAPAVQQDYYKLFDGSNARDRVLGNKARITVRVRSIQPNGRGQATVRFTTQQHNSNGTVERPQHQIATIGYTYIGAPMRSSDRLLNPLGFQVTSYRADPEILNN
B5: VirB3/TrwM (natural protein, Escherichia coli plasmid R388, UniProt O50329 1-104, looked up)
chain: MKPPQQQHEAFPLFKGATRLPTILGEPMIPLMAMVMGVAVIALTVSIWWWALVPPLWFIMAQITKNDDKAFRIWWLWIDTKFRNRNKGFWGASSYSPANYRKRR

Experiments:
[1] = biological target: VirB4/TrwK (untagged, in the T4SS3-10 complex) (Escherichia coli plasmid R388) (UniProt O50330); assay: negative stain EM reconstruction
[2] = biological target: VirB10/TrwE with a C-terminal StrepII tag (Escherichia coli plasmid R388) (UniProt O50337); assay: tandem affinity purification with 125I labelling of tyrosines and SDS-PAGE
co-purification = biological target: the molecule itself; assay: co-purification
[3] = biological target: B1; assay: tandem affinity purification with 125I labelling of tyrosines and SDS-PAGE
[4] = biological target: T1, VirB4/TrwK with a C-terminal StrepII tag; assay: SEC

How did the stoichiometry N [1] turn out when “VirB4/TrwK (untagged, in the T4SS3-10 complex) (from UniProt O50330 1-823) (enzyme)” was run?
The stoichiometry N was 6.

Which copies in the complex, calibrated on 14 copies of VirB10/TrwE [2] does the source give for “VirB6/TrwI with an N-terminal His6 tag (natural protein)” here?
The copies in the complex, calibrated on 14 copies of VirB10/TrwE was 23.8 copies.

For B1, which “stoichiometry N” value (co-purification) is on record?
The value was 14.

How did the “copies in the complex, calibrated on 14 copies of VirB10/TrwE” value (shortened to “copies in the complex … of VirB10/TrwE”) [3] turn out when B2 was run?
The value was 11.5 copies.

With B3 as the molecule, how does the “copies in the complex … of VirB10/TrwE” value [3] read?
Its value is 11.9 copies.

Which “copies in the complex … of VirB10/TrwE” value [3] does the source give for B4 here?
Its value is 12.6 copies.

How did the “stoichiometry N” value [4] turn out when B5 was run?
Its value is 1.
